{"source": "patent US20230372299A1", "about": "“PREPARATION OF TEREVALEFIM AND FORMULATIONS THEREOF” (Angion Biomedica Corp., priority 2020, published 2023)", "origin": "cited, not measured here"}
{"substance": "HGF/SF: pleiotropic growth factor that stimulates cell growth, cell motility, morphogenesis and angiogenesis", "values": [{"measurement": "half-life", "result": "3 to 5", "unit": "min"}]}
